One protein from paper PMC4788688, “Chemical shift assignment of the alternative scaffold protein IscA” (Biomolecular Nmr Assignments, 2016) can be followed below.

The data set concerns the molecule itself. As to the kind of experiment: SEC; purified IscA in 20 mM Tris-HCl with 20 mM DTT or 5 mM TCEP; chromatograms showed no significant differences at 50, 150 or 1000 mM NaCl; self-association into dimers and higher species. A general note: SEC sorts molecules by how far they enter the pores of the column.

B1: E. coli IscA protein (cluster-free) (natural protein)
chain: MSITLSDSAAARVNTFLANRGKGFGLRLGVRTSGCSGMAYVLEFVDEPTPEDIVFEDKGVKVVVDGKSLQFLDGTQLDFVKEGLNEGFKFTNPNVKDECGCGESFHV
notes: IscA of E. coli, recombinant, printed length 107 residues (11.5 kDa); cluster-free; 15N- or 13C/15N-labelled for NMR; also called alternative scaffold protein IscA; source: E. coli BL21 (DE3), pETM30 vector, purified (DEAE and Q anion exchange, Superdex 75 size exclusion)
In the case of B1, the binding result is “binds”.
